± gives the standard deviation of the averaged measurements.
Tested on: ATP
Assay: switch fluorescence ratio, 500 uM ATP over buffer (Cy3 cluster intensity, sum of 5 cycles each) (fold (ratio)); higher = stronger signal-on switching upon ATP binding; sequences stand for … in TCGTCGGCAGCGTCAGATGTGTATAAGAGACAGTTTTTTTTTTTTTTTTTTTTTTTTT…TC
Conditions: aptamer strand: ATP DNA aptamer (quencher-CACCTGGGGGAGTATTGCGGAGGAAGG + anchor), 100 nM annealed; ATP concentration: 500 uM
Outline: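 After annealing to 100 nM quencher-labelled ATP aptamer, Cy3-labelled switching-strand clusters on a modified Illumina MiSeq flow-cell were imaged in selection buffer. A second image followed after 15 min with 500 uM ATP at 22 °C, and five such buffer/ATP cycles were done, each separated by NaOH stripping and re-annealing. The fluorescence ratio, averaged per switch-domain sequence, is summed target-cycle over summed buffer-cycle Cy3 intensity per cluster, with clusters outside 100-1000 RFU excluded.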
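Further: ATP exposure 15 min at 22 °C before imaging.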

Sequence	switch fluorescence ratio
AAAGGCAAAG	0.9971 ± 0.0082
GTGGCGTAGG	0.981 ± 0.021
ATTTTGGGGT	1 ± 0.014
TTGGAGATTT	1.02 ± 0.022
TCAACAGGGA	1.08 ± 0.15
CTTTATGCGG	0.99361 ± 0.00077
GAGAGATGGG	0.988 ± 0.018
AGGGTTTTCT	1 ± 0.012
GAGAGGGGAT	1.03 ± 0.036
TACAGAATCG	1.014 ± 0.0014
GTAATAAGGA	0.994 ± 0.029
AACGTGGCGG	0.988 ± 0.018
TGTGGCAATT	1.07 ± 0.037
ATTCGTTTTT	1 ± 0.021
GACTGGGGGT	0.998 ± 0.033
TGTTTCGTGG	0.971 ± 0.02
TTCGTGGTGA	1.02 ± 0.019
GTAGGCGGGG	0.99 ± 0.018
TTGTGCGCAG	1 ± 0.029
AAATGGAACC	1.04 ± 0.065
TGTGTTCCCT	0.982 ± 0.028
GCCAGGGGTG	1.47 ± 0.033
AATTCATTTT	1.03 ± 0.059
AATACCGTT	0.968 ± 0.055
TCTATCCCAG	1.13 ± 0.092

Sequence	switch fluorescence ratio
TCGAAAACAG	0.961 ± 0.0078
ATATGCGTCG	0.95 ± 0.027
TTTAGACTGG	1 ± 0.022
GGGGGGGGT	1 ± 0.02
CGGTTAGATA	0.987 ± 0.019
GAAGAACGAA	1.022 ± 0.004
CTCCTTTTAT	1.03 ± 0.029
AGATATTCCG	0.987 ± 0.02
TATCGGCGAG	1.02 ± 0.046
TGGCACAGAG	1 ± 0.022
AGAGCTCTTT	1 ± 0.029
AGGGTTATAG	0.982 ± 0.025
ATTTTAACGT	1.01 ± 0.046
CTTAAAAAGG	0.989 ± 0.0056
TATATATGAC	1.01 ± 0.022
TACCTTCTTG	1.176 ± 0.0027
CCATTTTGCA	1.04 ± 0.05
TTGTAATGAG	1.04 ± 0.065
GGCAGAGATC	1.06 ± 0.077
ACGAACGATC	1.35 ± 0.022
ATAATAGGGT	0.972 ± 0.03
TTGGTTACGT	1 ± 0.039
CAATCACAGG	1.286 ± 0.0086
TGTCCGTTTG	1.01 ± 0.023
ATCGAATATT	0.983 ± 0.031

Sequence	switch fluorescence ratio
TTGGTGGCTT	0.968 ± 0.03
TTTCAAAGTA	0.9657 ± 0.0071
CGGGGGTGAG	1.04 ± 0.13
CGGTTGGTTT	1.02 ± 0.017
TGATGAAAGG	0.987 ± 0.031
TTGTAGGGAA	1.03 ± 0.013
TAGAGGGGAA	1.024 ± 0.0034
CGTTTCATGC	1.05 ± 0.056
CACTGTGTTG	0.987 ± 0.035
AGGGACGTAG	1.05 ± 0.026
TTTGTGATTA	0.9954 ± 0.0093
CGTGTTAGGG	1.0062 ± 0.00077
TGGTCGTCTT	1.05 ± 0.035
TTACTTCTGG	0.9796 ± 0.0017
ACTACCTACA	1.364 ± 0.0065
AGAATTAGGC	0.999 ± 0.021
ACGGCCTGGG	1.03 ± 0.03
GGGGTTTTCA	1.022 ± 0.0042
TGCGGGGGTG	1.05 ± 0.018
TAAAATATTA	1.03 ± 0.02
ACCATCAGCG	1.038 ± 0.0019
GGGGCCATTT	0.99 ± 0.033
TATGGATGGG	0.961 ± 0.02
AATGAAGTCC	1.054 ± 0.0038
CGCATCCCGC	1.37 ± 0.024

Sequence	switch fluorescence ratio
AAAAATATTT	1.61 ± 0.86
TAGGTCTGCG	0.978 ± 0.014
ATGTGTATGG	0.998 ± 0.018
TTGGGGTAGC	1.01 ± 0.036
TTCGAGTCTT	0.9742 ± 0.0083
ATTGCAGATC	1.05 ± 0.058
TGCGGAAGGC	1.11 ± 0.013
TAGGTTGTTG	0.969 ± 0.011
AGGCTTTGG	0.999 ± 0.051
CAGCCCTATA	1.04 ± 0.047
GGCCTGTGTG	1.02 ± 0.041
ATTGTCTCTA	0.999 ± 0.032
TTCGTCTGGG	1.03 ± 0.065
GTTCGGGTTG	0.988 ± 0.027
ATTAAAGTAG	1.006 ± 0.0067
TTTTTGTTC	0.99 ± 0.023
TTTTGACCGA	0.976 ± 0.073
GCTTGGGGAT	1.01 ± 0.033
TGTAGGCGGC	1.02 ± 0.015
GTTGTTATCG	0.993 ± 0.028
CGGGCTGCGT	0.962 ± 0.028
TATCTAGGGC	1.025 ± 0.0042
AAGCGGGCCT	1.02 ± 0.026
ACGTATAGAG	0.991 ± 0.042
GGAATGCTAT	0.996 ± 0.013

Sequence	switch fluorescence ratio
TTTTTGCTCA	0.9912 ± 0.0055
AGGGGAAACA	1.01 ± 0.031
GGGGTTATCG	0.99 ± 0.029
GGGGGGTATT	0.987 ± 0.037
ACGGGACGGC	1.04 ± 0.14
GGATTTGTGA	1.02 ± 0.022
GAGCTCACGG	1.02 ± 0.017
ATGCTACCTT	1.1 ± 0.048
AATATGTCTG	0.937 ± 0.06
AGGTCCGCTT	1.32 ± 0.039
GATGCTAGAT	1.01 ± 0.026
AATGGTAATA	0.986 ± 0.025
TATTTAGTCG	0.975 ± 0.019
TAAGAGGGGA	1.01 ± 0.027
AAGAAGACGG	1.23 ± 0.35
TTAGGACTAG	0.9698 ± 0.0048
CTGGGTTTGT	0.981 ± 0.016
CCTTTCTTTT	1.04 ± 0.049
ACAAATTGCC	1.031 ± 0.0017
GGGTGATGAA	1 ± 0.045
CTTGGGATCA	0.971 ± 0.011
GGCGGGAGGA	1.02 ± 0.025
GTATAATTTG	0.9933 ± 0.0019
GTGGACTTAA	0.9953 ± 0.0046
AAGAATGTGT	0.978 ± 0.056

Sequence	switch fluorescence ratio
AATGTTTAAA	0.9764 ± 0.0016
CTAGTCAAGA	1.027 ± 0.0066
TCGAGTAGGG	0.995 ± 0.016
TCGGGTTCAG	1 ± 0.034
AGATGAAGTG	0.99 ± 0.019
CAATAAAATC	0.9924 ± 0.0019
TGTTCCGCCC	2.012 ± 0.0024
TGGGATGCAT	0.991 ± 0.034
CGCGTATGTT	0.985 ± 0.026
TATAAATTAG	0.972 ± 0.026
AATGGTGGTC	0.998 ± 0.012
TTACGAGATT	1.01 ± 0.068
GGGGGATGTC	1 ± 0.034
GGCAGGGGCT	1 ± 0.044
TTCCAGTAAT	1.01 ± 0.024
GGTGGGGGGA	1.01 ± 0.063
GGTGGAGGAG	0.979 ± 0.023
TAAAAGAACT	1.03 ± 0.038
GACTAGTTGG	0.983 ± 0.025
TATACATGAG	1.03 ± 0.021
TGTACAAAAT	0.986 ± 0.047
TTAAGGGGAC	1.04 ± 0.037
CGTTTAACGT	0.989 ± 0.047
AAAATTCTGG	0.973 ± 0.034
TTGTAGTTTG	0.977 ± 0.0071

Sequence	switch fluorescence ratio
AACAGGGCGG	1.01 ± 0.015
GATTTCTCGT	0.9551 ± 0.0021
TTATCGGTTG	1.03 ± 0.043
ATGCGACGCT	1.091 ± 0.0038
GGGTCGTCAT	1.01 ± 0.015
GAGTTAGTGT	1.03 ± 0.017
GAGGGACTCT	0.964 ± 0.013
GTATGACAGT	1.02 ± 0.032
TTTTCATGAT	0.991 ± 0.022
CATGGAGCGA	1.24 ± 0.064
CCGGTCCCTA	1 ± 0.011
TGTGGACCAC	1.04 ± 0.038
AATGTGCGTT	0.993 ± 0.04
TCGGTTGGTA	1 ± 0.042
TGGGGTACGG	1.004 ± 0.0064
TATTGGCTTG	0.985 ± 0.013
TTTAAGAAGG	1 ± 0.015
CGTGTAATGG	1.042 ± 0.0015
TAGGGGCGAG	0.989 ± 0.048
AGTAAGCGGC	1.004 ± 0.0094
GATAGAAGTG	0.986 ± 0.014
TGTGTCAGTG	1.01 ± 0.081
TATTAATCTT	1.02 ± 0.014
ATTGGGATGA	0.976 ± 0.025
GATTGCCGTG	1.03 ± 0.024

Sequence	switch fluorescence ratio
GGGGCTTTGG	0.98 ± 0.025
AAAGTCGCGC	1.01 ± 0.018
GGTACGTGCA	0.99 ± 0.024
TTCACGCTAG	1.0378 ± 0.00056
CTGAGTCAAT	2.23 ± 0.042
GGGGTGAGCC	0.978 ± 0.017
GGAGACGGTT	1 ± 0.051
GAGATGTTAG	0.971 ± 0.017
CCTTTCCGGG	1.21 ± 0.048
AGGGACTTGG	1 ± 0.047
AAGTTTGCGT	0.993 ± 0.022
AATAGTGGTT	1.004 ± 0.0033
TGCCGCTTCT	1.02 ± 0.058
GCCCAAAAGA	1.02 ± 0.02
TTGGGGGCAA	1.57 ± 0.84
GCTAGGGGTA	0.987 ± 0.012
TTTAGTTACG	0.987 ± 0.013
CGCTATTCGG	1.04 ± 0.043
ATTGAACCGG	1.04 ± 0.012
TTCGCGGTCT	1.11 ± 0.13
ACGGCAGAGG	1.09 ± 0.02
CAGGTCCTTT	1.01 ± 0.025
GTTTGCTGTT	0.9931 ± 0.0089
GTTTTCGAGC	1.11 ± 0.043
TGAGTTCAAC	1.04 ± 0.086

From the supplement of paper PMC10126150
